Key:
[1] = molecular target: human TIGIT on Jurkat cells (TIGIT/NFAT reporter Jurkat cells, BPS Bioscience #60538; Promega TIGIT Effector Cells) (human) (UniProt Q495A1); experiment: cell-based or functional assay
[2] = molecular target: human TIGIT on Jurkat cells (TIGIT/NFAT reporter Jurkat cells, BPS Bioscience #60538; Promega TIGIT Effector Cells) (human) (UniProt Q495A1); experiment: flow cytometry, TIGIT/NFAT Jurkat cells, 10 ug/ml

Chain of human TIGIT on Jurkat cells (TIGIT/NFAT reporter Jurkat cells, BPS Bioscience #60538; Promega TIGIT Effector Cells) (human) (Q495A1 22-244): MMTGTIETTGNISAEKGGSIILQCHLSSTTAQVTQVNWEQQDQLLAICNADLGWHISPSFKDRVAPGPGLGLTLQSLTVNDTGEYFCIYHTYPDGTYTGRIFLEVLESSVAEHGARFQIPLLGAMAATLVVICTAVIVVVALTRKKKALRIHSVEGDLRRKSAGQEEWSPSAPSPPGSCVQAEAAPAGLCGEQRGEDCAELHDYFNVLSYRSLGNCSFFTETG

B1: 43586p1.2.F6 (scFv, V domains shown)
VH: EVQLLESGEGLVQPGGSLRLSCAASGFTFTSYLMSWVRQAPGKGLEWVSTITWDGDRTYYADSVKGRFTISRDNSKNTLYLQMNSLRVGDTAVYYCAKHWTVFQYGMDVWGQGTTVTVSS
VL: QSVLTQPASASGTPGQRVTISCSGTISNIETKYVSWYQQLPGTAPKLLIYGNHQRPSGVPDRFSGSKSGTSASLAISGLQSEDEADYYCASWENDLKSWVFGGGTKLTVL
Which max. signal (% of 22G2) [1] does the source give for B1 here?
The max. signal (% of 22G2) was 116 % of 22G2.

And the MFI [2]?
Its MFI is 10700 MFI.
